US20260274955A1 (JANUX THERAPEUTICS, published 2026)

B1: Phage-230 (peptide)
peptide: YCAGHIEEYMWKCL
B2: Phage-231 (peptide)
peptide: YCQGHMPEYMDKCL
B3: Phage-232 (peptide)
peptide: YCDGHAPEYVMKCL
B4: Phage-233 (peptide)
peptide: YCDGHVGEYMQKCL
B5: Phage-234 (peptide)
peptide: YCDGHSAQYMHKCL
B6: Phage-235 (peptide)
peptide: YCEGHAPEYMYKCL
B7: Phage-236 (peptide)
peptide: YCDGHLPEYQMKCL
B8: Phage-238 (peptide)
peptide: YCDGHLIEYMEKCL
B9: Phage-298 (peptide)
peptide: YCDGHLNEYMEKCL
B10: Phage-239 (peptide)
peptide: YCEGHAIQYMSKCL
B11: Phage-240 (peptide)
peptide: YCEGHAPQHMDKCL
B12: Phage-242 (peptide)
peptide: YCDGHFREYMQKCL
B13: Phage-259 (peptide)
peptide: YCEGHLSQYMQKCL
B14: Phage-261 (peptide)
peptide: YCDGHSDQYMWKCL
B15: Phage-262 (peptide)
peptide: YCDGHLPQYMSKCL
B16: Phage-266 (peptide)
peptide: YCDGHMPQYMSKCL
B17: Phage-263 (peptide)
peptide: YCEGHAAEYMMKCL
B18: Phage-264 (peptide)
peptide: YCAGHLPMYMHKCL
B19: Phage-269 (peptide)
peptide: YCDGHLWEYMDKCL
B20: Phage-270 (peptide)
peptide: YCEGHLPMYFLKCM
B21: Phage-271 (peptide)
peptide: YCDGHLPIYMTQCL
B22: Phage-272 (peptide)
peptide: YCEGHLAEYMDKCL

Molecular target: T1, Anti-CD28 Fab (SEQ ID NOs: 202, 203)
T1 construct: biotinylated and captured on neutravidin coated plates in the phage ELISA
Assay: phage ELISA on captured biotinylated Fab;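 further: wells preblocked with or without CD28 antigen, then clonal phage supernatant added briefly, washed, and bound phage read out by ELISA using HRP-linked anti-M13 antibody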
Experimental: (§1) Clonal phage were harvested as crude supernatants and screened via standard ELISAs. […] Prior to the addition of clonal phage, wells were incubated with blocking buffer and CD28 antigen or blocking buffer alone. Without washing or aspirating, clonal phage supernatants were then added to the wells and incubated for a short time. Wells were then washed followed by detection of bound phage using a horse radish conjugated anti-M13 antibody.

T1 sequence (VH, as listed by the source, chain 1 of 2): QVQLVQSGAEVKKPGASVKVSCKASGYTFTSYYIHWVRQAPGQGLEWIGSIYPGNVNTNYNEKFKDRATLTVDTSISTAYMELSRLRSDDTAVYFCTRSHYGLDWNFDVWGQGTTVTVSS
T1 sequence (VL, as listed by the source, chain 2 of 2): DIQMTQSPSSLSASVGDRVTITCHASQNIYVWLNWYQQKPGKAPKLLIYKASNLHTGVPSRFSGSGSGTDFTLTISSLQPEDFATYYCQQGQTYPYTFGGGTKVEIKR

Question: How did the “Anti-CD28 Fab signal” value turn out when B1 was run?
Answer: The value was 2.05.

Question: For B2, which “Anti-CD28 Fab signal” value is on record?
Answer: Its value is 2.05.

Question: With B3 as the binder, how does the “Anti-CD28 Fab signal” value read?
Answer: The value was 2.05.

Question: How did the “Anti-CD28 Fab signal” value turn out when B4 was run?
Answer: Its value is 2.05.

Question: For B5, which “Anti-CD28 Fab signal” value is on record?
Answer: The value was 2.05.

Question: B6 was tested. Which “Anti-CD28 Fab signal” value did it give?
Answer: Its value is 2.05.

Question: How did the “Anti-CD28 Fab signal” value turn out when B7 was run?
Answer: Its value is 2.05.

Question: With B8 as the binder, how does the “Anti-CD28 Fab signal” value read?
Answer: Its value is 2.04.

Question: Which “Anti-CD28 Fab signal” value does the source give for B9 here?
Answer: Its value is 1.91.

Question: B10 was tested. Which “Anti-CD28 Fab signal” value did it give?
Answer: The value was 2.04.

Question: Which “Anti-CD28 Fab signal” value does the source give for B11 here?
Answer: Its value is 2.04.

Question: Which “Anti-CD28 Fab signal” value does the source give for B12 here?
Answer: The value was 2.04.

Question: With B13 as the binder, how does the “Anti-CD28 Fab signal” value read?
Answer: Its value is 2.

Question: B14 was tested. Which “Anti-CD28 Fab signal” value did it give?
Answer: Its value is 2.

Question: Which “Anti-CD28 Fab signal” value does the source give for B15 here?
Answer: Its value is 2.

Question: Which “Anti-CD28 Fab signal” value does the source give for B16 here?
Answer: Its value is 1.98.

Question: With B17 as the binder, how does the “Anti-CD28 Fab signal” value read?
Answer: The value was 1.99.

Question: B18 was tested. Which “Anti-CD28 Fab signal” value did it give?
Answer: The value was 1.99.

Question: B19 was tested. Which “Anti-CD28 Fab signal” value did it give?
Answer: Its value is 1.97.

Question: For B20, which “Anti-CD28 Fab signal” value is on record?
Answer: The value was 1.97.

Question: B21 was tested. Which “Anti-CD28 Fab signal” value did it give?
Answer: Its value is 1.97.

Question: With B22 as the binder, how does the “Anti-CD28 Fab signal” value read?
Answer: The value was 1.96.

Molecular target: T1, Anti-CD28 Fab (SEQ ID NOs: 202, 203)
Assay: phage ELISA on captured Fab, wells pre-incubated with CD28 antigen (competitor: CD28);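 further: bound clonal phage detected with an HRP-linked anti-M13 antibody, compared against wells that received blocking buffer alone without CD28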
Experimental: as §1

Question: How did the “Anti-CD28 Fab signal in the presence of CD28” value (“Anti-CD28 Fab signal … of CD28” for short) turn out when B1 was run?
Answer: The value was 0.06.

Question: B2 was tested. Which “Anti-CD28 Fab signal … of CD28” value did it give?
Answer: Its value is 0.07.

Question: How did the “Anti-CD28 Fab signal … of CD28” value turn out when B3 was run?
Answer: The value was 0.1.

Question: Which “Anti-CD28 Fab signal … of CD28” value does the source give for B4 here?
Answer: The value was 0.08.

Question: How did the “Anti-CD28 Fab signal … of CD28” value turn out when B5 was run?
Answer: Its value is 0.06.

Question: For B6, which “Anti-CD28 Fab signal … of CD28” value is on record?
Answer: The value was 0.07.

Question: B7 was tested. Which “Anti-CD28 Fab signal … of CD28” value did it give?
Answer: The value was 0.08.

Question: B8 was tested. Which “Anti-CD28 Fab signal … of CD28” value did it give?
Answer: Its value is 0.06.

Question: With B9 as the binder, how does the “Anti-CD28 Fab signal … of CD28” value read?
Answer: The value was 0.06.

Question: Which “Anti-CD28 Fab signal … of CD28” value does the source give for B10 here?
Answer: The value was 0.06.

Question: With B11 as the binder, how does the “Anti-CD28 Fab signal … of CD28” value read?
Answer: Its value is 0.08.

Question: For B12, which “Anti-CD28 Fab signal … of CD28” value is on record?
Answer: The value was 0.06.

Question: For B13, which “Anti-CD28 Fab signal … of CD28” value is on record?
Answer: The value was 0.09.

Question: With B14 as the binder, how does the “Anti-CD28 Fab signal … of CD28” value read?
Answer: The value was 0.11.

Question: B15 was tested. Which “Anti-CD28 Fab signal … of CD28” value did it give?
Answer: The value was 0.1.

Question: With B16 as the binder, how does the “Anti-CD28 Fab signal … of CD28” value read?
Answer: Its value is 0.08.

Question: Which “Anti-CD28 Fab signal … of CD28” value does the source give for B17 here?
Answer: Its value is 0.07.

Question: Which “Anti-CD28 Fab signal … of CD28” value does the source give for B18 here?
Answer: Its value is 0.18.

Question: Which “Anti-CD28 Fab signal … of CD28” value does the source give for B19 here?
Answer: Its value is 0.06.

Question: B20 was tested. Which “Anti-CD28 Fab signal … of CD28” value did it give?
Answer: Its value is 0.06.

Question: For B21, which “Anti-CD28 Fab signal … of CD28” value is on record?
Answer: Its value is 0.08.

Question: Which “Anti-CD28 Fab signal … of CD28” value does the source give for B22 here?
Answer: Its value is 0.07.
